# Laboratory results taken from patent US20110230650A1 (NORTHWESTERN UNIVERSITY, published 2011).
# B1: histidine-tagged LP4 (designed binder)
# chain: FQKKWQEEMELYRQKVEPLRAELQEGARQKLHELQEKLSPLGEEMRDRARAHVDAFQKKWQEEMELYRQKVEPLRAELQEGARQKLHELQEKLSPLGEEMRDRARAHVDAFQKKWQEEMELYRQKVEPLRAELQEGARQKLHELQEKLSPLGEEMRDRARAHVDAFQKKWQEEMELYRQKVEPLRAELQEGARQKLHELQEKLSPLGEEMRDRARAHVDA
# notes: Histidine-tagged LP4 purified without detergent as an empty, lipid-filled nanodisc; not shown: histidine tag
# Molecular target: the molecule itself
# Experiment: gel filtration (Superdex 200) of His-tagged LP4 purified without detergent; lipid nanodisc
# Source text: In some embodiments, the presently disclosed compositions comprise a distinct form of polypeptides that are specifically engineered to spontaneously solubilize membrane proteins without a detergent intermediary (i.e., “LP” molecules). […] For example, in some embodiments the polypeptides comprise multiple repeats of an amphipathic helical fragment of ApoA1. […] The eluted protein was run on a gel filtration column (Superdex 200, FIG. 3, middle panel). […] The protein behaved as expected: it self-assembled as a dimer of appropriate size (as in FIG. 2) and solubilized a membrane fragment.
protein,measurement,value
B1,binding result,binds
